Laboratory results reported in patent publication US12617816B2 (priority 2019, dated 2026).
Where two headings read alike, the source gives them in different places.

Columns and labels:
[1] = molecular target: T1, human mu-opioid receptor (Homo sapiens, UniProt P35372); assay: cell-based; type: binding
T1 construct: host or cells: CHO-K1

[2] = molecular target: T1, human mu-opioid receptor; type: cell-based
[3] = test system: MOR; set-up: species or system mice; details: in vivo
[4] = molecular target: MOR (Homo sapiens, UniProt P35372)
Sequence of MOR (Homo sapiens, UniProt P35372) (P35372 whole entry): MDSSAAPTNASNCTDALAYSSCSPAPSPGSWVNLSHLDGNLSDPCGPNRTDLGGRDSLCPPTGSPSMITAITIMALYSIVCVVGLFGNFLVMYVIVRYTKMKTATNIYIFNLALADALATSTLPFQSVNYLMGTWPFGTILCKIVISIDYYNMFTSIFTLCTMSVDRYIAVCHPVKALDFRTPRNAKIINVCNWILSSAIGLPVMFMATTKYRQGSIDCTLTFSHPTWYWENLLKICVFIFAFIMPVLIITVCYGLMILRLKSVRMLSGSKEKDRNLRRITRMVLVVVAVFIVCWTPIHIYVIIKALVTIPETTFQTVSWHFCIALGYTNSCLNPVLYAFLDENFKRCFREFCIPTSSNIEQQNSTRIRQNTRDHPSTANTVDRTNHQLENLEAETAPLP

[5] = mouse, in vivo
[6] = in vivo; details: mouse, iv
[7] = in vivo; cited from earlier work

T1 sequence (P35372 whole entry): as above

| Compound | IC50 [1] [nM] | Ki [1] [nM] | displacement of retained DRM-800 by naloxone [2] | ratio of enhancement, wildtype to knockout mouse [3] [×] | enhancement in wildtype compared to knockout mice ([3]; mouse) | Binding potential (BP) [4] | tolerability of intravenous injection [5] | distribution half-life (biexponential) ([5]; iv) | elimination (β) half-life (biexponential) ([5]; iv) | persistence in plasma ([5]; iv) | plasma half-life (time in which the concentration of dye is 50% of initial) ([5]; iv) [min] | half-life ([6]; distribution half-life (biexponential)) [min] | half-life ([6]; elimination (β) half-life (biexponential)) [min] | half-life ([6]; plasma half-life (time in which the concentration of dye is 50% of initial)) [min] | half-life [7] [min] |
| --- | --- | --- | --- | --- | --- | --- | --- | --- | --- | --- | --- | --- | --- | --- | --- |
| C[C@@H](NC(=O)[C@@H](N)Cc1ccc(O)cc1)C(=O)N[C@@H](Cc1ccccc1)C(=O)NCC(=O)N[C@@H](Cc1ccc(O)cc1)C(=O)N1CCC[C@H]1C(=O)N[C@@H](CCCCN)C(=O)N[C@@H](CSC1CC(=O)N(CCNC(=O)CCCCC[N+]2=C(/C=C/C3=C(Oc4ccc(S(=O)(=O)O)cc4)C(=C/C=C4/N(CCCCS(=O)(=O)O)c5ccc(S(=O)(=O)O)cc5C4(C)C)/CCC3)C(C)(C)c3cc(S(=O)(=O)[O-])ccc32)C1=O)C(N)=O (stereo partly drawn) [DRM-800, [Lys7]dermorphin-IRDye800CW] | 3.5 | 0.64 | cannot be displaced even at high concentrations of naloxone | 3.1 | higher enhancement in the wildtype mice compared to knockout mice | approximately 10 | well-tolerated | 6.2 (4.9-8.6) min | 45 (33-68) min | at least one hour | 12.6 | 3.3 | 70.8 | 7.95 |  |
| C=CCN1CC[C@]23c4c5ccc(O)c4O[C@H]2C(=O)CC[C@@]3(O)[C@H]1C5 [naloxone] |  |  |  |  |  |  |  |  |  |  |  |  |  |  | 60 to 80 |
